Measured values from the nanobody polyreactivity screen of Harvey et al. (2022).

Experiment: yeast display, Sf9 membrane polyspecificity reagent, FACS + sequencing; frameworks hold sequencing errors
Method in brief: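 Synthetic nanobody libraries on Saccharomyces cerevisiae BJ5465 were galactose-induced for 36–48 hours, stained 1 hour at 4 °C with 10% biotinylated, detergent-solubilized Sf9 membrane reagent and enriched on streptavidin microbeads. FACS then separated cells into low and high (top ~1%) gates by anti-HA (expression) and streptavidin (reagent binding) fluorescence. Genes were colony-PCR amplified, MiSeq 2 × 250 sequenced and CDR-length filtered. A clone's polyreactivity label is that of its gate of origin.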

| Sequence | polyreactivity (PSR sort gate) |
| --- | --- |
| QGQLVESGVGLVQAGGSLSLSCAASGSILNNYAMAWYIQAPGKERELVAAISSSGGTNYADSVKGRFTISRDNAKNTVYLQMNSLKPEDTAVYYCNADVLDGGYDYWGQGTQVTVSS | low polyreactivity |
| QVQLVESGGGLGQAGGRLRLSCAASGRTFAQNAMGWNRKAPGKERELVAAITSSGGSTYYADSVKGRFTISRDNAKNTVYLQMNSLKPEDTAVYYCAADRHYGTEYAYDYWGQGTQVTVSS | low polyreactivity |
| QVQLVESGGGLVQAGGSLRLSCAASGSIFYQNAMGWYRQAPGKERELVAAISSAGSTYYADSVKGRFTISRDNAKNTVYLQMNSLKPEDTAVYYCARRSSGELGYHIYDYWGQGTQVTVSS | low polyreactivity |
| QVQLVESGGGLVQAGGSLRLSCAASGSTFNDNAMGWYRQAPGKERELVAGISYSGGSTYYADSVKGRFTISRDHAKNTVYLQMNSLKPEDTAVYYCNADVTGLSQFGYWGQGTQVTVSS | low polyreactivity |
| QVQLVESGGGLVQAGGSLRLSCAASGNIFIYNAMGWYRQAPGKERELVASITYSGDSTYYADSVKGRFTISRDNAKNTVYLQMNSLKPEDTAVYFCAAQGYGWWYDYWGQGSQVTVSS | low polyreactivity |
| QFQLVESGGGLVQAGGSLRLSCAASGYIFVRYTMGWYRQAPGKERELVAAISWGGGSTYYADSVKGLFTISRDNAKNTVYLQMNSLKPEDTAVYYCNNRYIQLYDYWGQGTQVTVSS | low polyreactivity |
| QVQLVESRGGLVQAGGSLRLRCAASGSTFGYYAMGWYRQAPGKERELVAGISSGGTTKYADSVKGRFTISRDNEKNTVYLQMNSLKPEDTAVYYCAATVRVYDYWGQGTQVTLSS | high polyreactivity |
| QVQLVESGGGLVQAGGSLRLSCAASGSNFAINAMGWYRQAPGKERELVAAIRYSTGRTYYADSVKGRFTISRDNAKNTVYLQMNSLKPEDTAVYYCAALGFTKYGSRFDYWGQGTQVTVSS | high polyreactivity |
| QVQLVESGGGLVQAGGSLRLSCAASGSTFKRYAMGWYRQAPGKDRELVASISSGGSPNYADSVKGRFTISRDNAKNTVYLQMNSLKPEDTAVYYCAVSYRSFRYFWERYSSWGQGTQVTVSS | high polyreactivity |
| QVQLVESGGGLVQAGGSLRLSCAASGRISWGYAMGWYRPAPGKERELVAVINFNGGRTYYADSVKGRFTISRDNAKNTVYLQMNSLKPEDTAVYYCAADSGYEYDYWGQGTQVTVSS | low polyreactivity |
| QVQLVESGGGLVQAGGSLRLSCAASGRIFRGYAMGWYRQAPGKERELVAAITTNGGSTYADSVKGRFTISRDNAKNTVYLQMNSLKPEDTAVYYCAARRVGWARGSGNYDYWGQGTQVTVSS | low polyreactivity |
| QVQLVESGGGLVQAGGSLRLSCAASGRIFFLYAMGWYRQAPGKERELVASINRGGNTNYADSVKGRFTISRDNAKNTVYLHMNSLKPEDTAVYYCAARLVIFYPYSRYYYWGQGTQVTVSS | high polyreactivity |
| QVQLVESGGGLVQAGGSLRLSCAASGRTFTTNTMGWYRQAPGKERELVAGIRWSGSRTYYADSVKGRFTISRDNAKITVFLQMNSLKPEDSAVYYCAVGRRSDAPLYVYRFDYWGQGTQVTVSS | low polyreactivity |
| QVQLVESGGGLVQAGGSLRLSSAASGSIFSDYAMGWYRQAPGKERELVAAISGTGGGTYYADSVKGRFTISRDNAKNTVYLQMNSLKPEDTAVYYCAADYVFAWWGDYYWGQGTQVTVSS | high polyreactivity |
| QVQLVESGGGLVQAGGSLRLSCAASGSTFTWNVMGWYREAPGKERELVAAIDGSGGDTYYADSVKGRFTISRDHAKNTVYLQMNSLNPEDTAVYYCAAEDAAAYSENDYWGQGTQVTVSS | low polyreactivity |
| QVQLVESGGGLVQAGGSLRISCASSGRIFTFYAMGWYRPAPGKERELVAAISSGGSTYYADSVKGRFTISRDNAKNTFYLQMNSLKPEDTAVYYCAAEPVWYADYDYWGQGTQVTVSS | low polyreactivity |
| QVQLVESGGGLVQAGGSLRLSCAASGSIFGRNAMGWYRQAPGKERELVARISSRGGSTYYADSVKGRFTISRDNAKNTVYLQMNSLKPEDTAVYYCNRDRTWQTNDYWGQGTQVTVSS | high polyreactivity |
| QVQIVESGGGLVQAGGSLRLSCGASGLSFYYYAMGWYRQAPGKERELVASISTGGNTYYADSVKGRFTISRVNAKNTVYLQMNSLNPEDTAVYYCAAGLYSWSGYASYNSAYGYWGQGTQVTVSS | low polyreactivity |
| QVQLVESGGGLVQAGGSLRLSCAASGSTFSPYAMGWYRQAPGKERELVAAITGSTGSTYYAESVKGRFTISRDNAKNTVYLQMNSLKPEDTAVYYCAAVSSNARHVSRRRGYYWGQGTQVTVSS | high polyreactivity |
| QDQLVESGGGLVQAGGSLRLSCAASGRIFPLYVMGWYRQAPGKERELVAAISRSGSRTYYADSVKGRFTISRDNAKNTVYLQMNSLKPEDTAVYYCAAVTDGTTRYDGDYWGQGTQVTVSS | high polyreactivity |
| QVHLVESVGGLDQAGGSLRLSCAASGFIFVRYAMGWYRQAHGKEREFVAVISRRGGSTHYADSVKARFTISRDNAKNTVYLQMNSLKPEDTAVYYCNVRQGGPTVTWEYDYWGQGTQGTVSS | high polyreactivity |
| QVQLVESGGGLVQAGGSLRLSCAASGGTLQGNAMGWYRQAPGKERELVAAISSRGGRTYYADSVKGRFTISRDNAKNTVYLQMNSLKPEDTAVYYCAAVQKGDSTLLRTKGGYWGQGTQVTVSS | high polyreactivity |

| Sequence | polyreactivity (PSR sort gate) |
| --- | --- |
| QVQLVESGGGIVQAGGSLRLSCAASGFTFHTYAMGWYRQAPGKERELVAAISYSGGNTYYADSVKGRFTISRDNAMNTVYLQMNSLKPEDTAVYYCAAQSYYRYYWGQGTQVTVSS | high polyreactivity |
| QVQLVESGGGLVQAGGSLRLSCAASGFTFSPYAMGWYRQATGKERELVAAIRWTDGSTYYADSVKGRFTISRDNAKNTVYLQMNSLKPEDTAVYYCAAYWYHNIGGYGPGLNYWGEGTQVTVSS | high polyreactivity |
| QVQLVESGGGLVQAGGSLRLSCAASGIIFDRYTMGWYRQAPGKERELVAAIDDSDDSTYYADSVKGRFTISRDNAKNTVYLQMNSLKPEDTAVYYCAAEYTWFEYIDFGYWGQGTQVTVSS | high polyreactivity |
| QVQLVESGGGLVQAGGSLRLSCAASGSTFTDNAMGWYRQAPGKETELVAAINGSGDITYYADSVKGRFTISRDYAKNTVYLQMKSLKPEDTAVYYCATRTQYKTWYGAYYYWGQGTQVTVSS | low polyreactivity |
| QVQLVESGGGLVQAGGSLRLSCAASGSTFKRYAMGWYRQAPGKERELVAAITNGDRTNYADSVKGRFTISRDNAKNTVYLQMNSLKPEDTAVYYCAAAYSRYTSRFYYWGQGTQVTVSS | high polyreactivity |
| QVQLVESGGGLVQAGGSLRLSCAGSGSTFFEYAMGWYRQAPGKDREFVAGISWSGGITYYADSVKGRFTISRDNAKNTVYLQMNSLKPEDTAVYYCASAGGDWYGVDYWGQGTQVTVSS | low polyreactivity |
| QVQLVESGGGLVQAGGSLRLSCAASGIIFGKYVMGWYRQAPGKEREFVAAISVRSGSTYYADSVKGRFTISRDNAKNTVYLQMNSLKPEDTALYYCAAREPVPRHLDYYYWGQGTQVSVSS | high polyreactivity |
| QVQLVESGGGLVQAGGSLRITCAASGRIFGLYAMGWNRQAPGKEREFVAASSWSGTRTNYADSVKGRFTISRDNAKNTVDLQMNSLKPEDTAVYYCAAAYVSYTGYYGQEYDYWGQGTQVTVSS | high polyreactivity |
| QVQLVESGGGLVQAGGSLRLSCAASGSILRYYAMGWYRQAPGKEREFVAAISWSGTSTYYADSVKGRFTISRDNAKNTVYLQMNSLKPEDTAVYYCAARTYYVPYYYWGQGTQVTVSS | high polyreactivity |
| QVQLVESGGGLVQAGGSLRLSCADSGRIFWANAMGWYRQAPGKERELVAAITWRGTSTYYADSVKGRFTISRDNAKNTVYLQMNSLKPEDTAVYYCAKVPYLKYGYDYWGQGTQVTVSS | high polyreactivity |
| QVQLEESGGGLVQAGGSLRLSCAASGSTFSYNTMGWYRQAPGKERELVASITWSGGSTNYADSVKGRFTISRDNAKNTVYLQMNSLKPEDTAVYYCAKDYISVWNVRASDYYWYDYWGQGTQVTVSS | low polyreactivity |
| QVQLVESGGGLVQAGGSLRLSCAASGFTITAYAMGWYRQAPGKERELVAAISYSGGRTYYADSVKGRFTISRDIAKNTVYLQMNSLKTEDTAVYYCYAVLAHYQSLVYWGQGSQVTVSS | high polyreactivity |
| QVQLVESGGGLVQAGGILRLSCAASGFTFNRNAMGWYRQAPGKERELVAAISWSGTSTYYADSVKGRFTISRDNAKTTVYLQMNSLKPEDTAVYYCAARVKGQWNTYDSWGQGTQVTVST | high polyreactivity |
| QVQHVESRGGLVQAGGSLRLSCAASGSIFSANAMGWYRQAPGKVRELVAAITRGGSTNYADSVKGRFTISRDNAKNTVYLQMNSLKPEDTAVYYCNAEPDPYSSGRVRRDYDYWGQGTQVTVSS | low polyreactivity |
| QVQLVESGGGLVQAGGSLRLSCAASGSIFVDYAMGWSRPAPGKERELVVAISLSGGSTYYADSVKGRFTISRDNAKNTVYLQMNSLKPEDTAVYYCNAELIKGTYRWYEGGSQYGYWGHGTQVTVSS | low polyreactivity |
| QVQLVESGGGLGQAGGRLRLSCAASGRTFGYNAMGWYRQAPGKERELVAAISSGGSTNYADSVKGRFTISRDNAKNTVYLQMNSLKPEDTAVYYCAARRWRYVGTRYDYWGQGTQVTVSS | high polyreactivity |
| QVQLVESGAGLVHAGGSLRFSCAPSGIIIYRYAMGWYRQAPGKERELVAGISQRGGNTYYADSVKGRFTISRDNEKNTVYLQMYSLKPEDTAVYYCAAPYYGTRTNNRHEYWGLGTQVTVSS | high polyreactivity |
| QVQLVESGGGLVQAGGSLRLSCAASGSTLDFNAMGWYRQAPGKERELVAGISRDGGSTYYADSVKGRFTISRDNAKNTVYLQMNSLKPEDTAVYYCAVDFLDWYQDYYITYDYWGQGTQVTVSS | low polyreactivity |
| QVQLVESGGGLVQAGGSLRLSCAASGSTFVIYAMGWYRQAPGKERELVAAITFSGGRTYYADSVKGRFTISRDNAKNTVYLQMNSLKPEDTAVYYCNARHRNLAEYDYWGQGTQVTVSS | low polyreactivity |
| QVQLVESGGGLVQAGGSLRLSCAASGRIFYQYAMGWYRQAPGKERELVASISRSGTRTYYADSVKGRFTISRDNAKNTVYLQMNSLKPEDTAVYYCAAGYNLYYGVIYGFDYWGQGTQVTVSS | high polyreactivity |
| QVQLVESGGGLVQAGGSLRLSCAASGIIFGTNAMGWYRQAPGKERELVAGITSSGDSTYYADSVKGRFTISRDNAKNTVYLQMNSLKPEDTAVYYCAAYSGVGFLWFDYWGQGTQVTVSS | low polyreactivity |
